Molecular target: autologous blood coagulum (ABC) prepared from rat full blood
Experiment: rhBMP-6 mixed with rat full blood, coagulated for 60 min, serum removed; method of quantification not stated

- percent bound: > 95%
Substance: recombinant human BMP6 (rhBMP6) (from UniProt P22004 375-513) (ligand)

— patent US20210213165A1
